From publication PMC8205236 come the findings set out here.

Experiment [1] deals with FZD5-FZD6 chimeric protein (human). The experiment in a line: FRET or BRET; NanoBiT/BRET saturation binding on live HEK293A cells (setup 1): eGFP-WNT-3A conditioned medium 16.7 pM to 16.7 nM, 5% FBS, 10 mM HEPES, 240 min at 37 °C, then LgBiT and furimazine for 10 min; one-site specific model (normalised logarithmic fits for pKd). (In general: In BRET a luciferase serves as donor, and the signal depends on an acceptor being close.)

For experiment [2], the target named is FZD5-FZD7 chimeric protein (human). The description is as above.

Sequence of eGFP-tagged mouse WNT-3A (P27467 19-352): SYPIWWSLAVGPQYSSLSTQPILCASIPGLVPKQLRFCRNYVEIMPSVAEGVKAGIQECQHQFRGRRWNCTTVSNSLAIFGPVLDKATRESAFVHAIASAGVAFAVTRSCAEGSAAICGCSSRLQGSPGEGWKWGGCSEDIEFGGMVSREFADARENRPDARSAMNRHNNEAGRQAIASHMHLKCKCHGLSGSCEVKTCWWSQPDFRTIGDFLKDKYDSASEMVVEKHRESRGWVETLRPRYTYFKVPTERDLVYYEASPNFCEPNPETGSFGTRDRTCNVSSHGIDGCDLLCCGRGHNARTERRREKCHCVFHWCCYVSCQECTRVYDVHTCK

As to “eGFP-tagged mouse WNT-3A (from UniProt P27467 19-352) (ligand)”, the Kd – broadly, the constant that tells how readily two partners part at equilibrium – in experiment [1] turned out to be 4.4 nM; in experiment [2], 5 nM.
